From the nanobody polyreactivity screen of Harvey et al. (2022) come the findings set out here.

The nature of this data set: yeast display, Sf9 membrane polyspecificity reagent, FACS + sequencing; frameworks hold sequencing errors. A digest of the protocol: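 Galactose-induced (36–48 hours) yeast carrying a synthetic nanobody display library were exposed to 10% biotinylated, detergent-solubilized Sf9 membrane reagent at 4 °C for 1 hour. FACS followed streptavidin microbead enrichment, using low and high (top ~1%) gates for expression (anti-HA) and reagent binding (streptavidin). Colony PCR, MiSeq 2 × 250 sequencing and CDR-length filtering followed. Labels for polyreactivity reflect the gate of origin.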
As to “QVQLVESGGGLVQAGGSLRLSCAASGFIFSTNAMGWYRQAPGKERELVAAISASGGITYYADSVKGRFTISRDNAKNTVYLQMNSLKPEDTAVYYCAVYYYSPGNNIYGYWGQGTQVTVSS”, the “polyreactivity (PSR sort gate)” value is listed as “high polyreactivity”.
As for “QVQLVESGGGLVQAGGSLSLSCAASGSTFAYYAMGWSRQAPGKERELVAGITWTGGSTYYADSVKGRFTISRDNAKNTVYLQMNSLKPEDTAVYYCAVTYPYGYEYDHWGQGSQVTVSS”, the “polyreactivity (PSR sort gate)” value is recorded as “low polyreactivity”.
Then “QVQLVESGGGLVQAGGSLRLSCAASGRIFTTYAMGWYRQAPGKERELVAAISRSGGSTYYADSVKGRFTISRDNAKNTVYLQMNSLKPEDTAVYYCAAVPTSNSFRSSFYYWGQGTEVTVSS”, with “high polyreactivity”.
Then “QVQLVESGGGLVQAGGSLRLSCAASGSTFWVYGMGWYRQAPGKERELVADITSIGGSTYYADSVKGRFTISRDNAKNTVYLQMNSLKPEDTAVYYCAARETWYPYYWMGYWGQGTQVTVSS”, with “high polyreactivity”; and “LVQLVESGGGLVQAGGSLRLSCAASGSTFANNAMGWYRQAPGKERELVASITTDGSTNYADSVKGRFTISRDNAKNTVYLQMNSLKPEDTAVYYCAAAYQKSPITPKMDYWGQGTQVTVSS”, with “low polyreactivity”.
For “QVQLVESGGGLVQAGGSLRLSCAASGRTLRWYTMGGYRQAPGEERELVAAISSSGGSTYYADSVKGRFTISRDNAKNTVYLQMNSLKPEDTAVYYCARDRRLREYDYWGQGTQVTVSS”, the “polyreactivity (PSR sort gate)” value is listed as “low polyreactivity”.
Then “QVQLVESGGGLVQEGDSLRLSCAASGIIFLWYTLGLYRPAPGKERELVATISWGGGSTYADSVKGRFTISRDNAKNTVYLQMNSLKPEDTAVYYCAADNRYFRGQAYDYWGQGTQVTVSS”, with “low polyreactivity”; and “QVQLVESGGGLVQAGGSLRLSCAASGSTLNSYVMGWYRQAPGKERELVATIRSGSSTNYADSVKGRFTISLDNAKNTVYLQMNSLKPVDTAVYYCSRDDRLAGDYWGQGTQVTVSS”, with “low polyreactivity”; and “QVQLVESGGGLVQAGGSLRLSCAASGITFIYYAMGWYRQAPGKEREFVAAITFRDGDTYYADSVKGRFTISRDNAKNTVYLQMNSLKPEDTAVYYCADTYWVYYYYPGYDYWGQGTQVTVSS”, with “low polyreactivity”.
Next, “QVQLVESGGGLVQAGGSLRLSCAASGRIFGRNAMGWYRQAPGKERELVAAISSGGGRTYYADSVKGRFTISRDNAKNTVYLQMNSLKPEDTSVYYCAAEDWYEYDYWGQGTQVTVSS”: “high polyreactivity”.
Turning to “QVQLVESGGGLVQAGGSLRLSCAASGFTFNYYAMGWYRQAPGKERELVAAISRSGGSTSYADSVKGRFTISRDNAKNTVYLQMNSLKPEDTAVYYCNAVRAIYRYDYWGQGTQVTVSS”, the “polyreactivity (PSR sort gate)” value is “high polyreactivity”.
Next, “QVQLVESGGGLVQAGGSLRLSCASSGRTFWFYTMGWYRQAPGKERELVAAISSGGSTNYADSVKGRFTISRDNAKNTVYLQMNSLKPEDTAVYYCNKPPPNRGRYDYWGQGTQVTVSS”: “low polyreactivity”; “QVQLVEAGGGLVQAGVSLRLSCAASGLTFVPNAMGWYRQAPGKERELVAAISNNGGRTYYADSVKGRFTISRDNAKNTVYLQMNSLKPEDTAVYYCAKYLSPGERHSYDYWGQGTQVTVSS”: “high polyreactivity”; “QVQLVESGGGLVQEGGSLRLSCAASGSIFGGYALGWYRQAPGKERELVAAITWRGGRTYYADSVKGRFTISRDNAKNTVYLQMNSMKPEDTAVYYCNAVGSYRLYDYWGQGTQVTVSS”: “high polyreactivity”.
Regarding “QVQLVESGGGLVQAGGSLRLSCAASGSTFWYNAMGWYRQAPGKERELVAAISASGGSTYYADSVKGRFTISRDNAKNTVYLQMNSLKPEDTAVYYCAAGSFWGYSRYRTYYGFDYWGQGTQVTVSS”, the “polyreactivity (PSR sort gate)” value is on record as “high polyreactivity”.
Next, “QVQLVESGGGLVQAGGSLRLSCAASGRTFASYAMGWYRPAPGKEREFVAVISVNGGNTYYADSVKGRFTISRDNAKNTVYLQMNSLKPEDTAVYYCARFDGWYQGYYPLYEFDYWGQGTQVTVSS”: “high polyreactivity”; “QVQLVESGGGLVQAGGSLRLSCAASGSIFWGTAMGWERQAPGKERELVAAISWSGGSTYYADSVKGRFTISRDNAKNTVDLQMHSLKPEDTAVYYCAARFKRVGSIPYYYWGQGTQVTVSS”: “high polyreactivity”; “HVQLVDSSGRVVQARCSLRLSCAASGSTFHDNAMGWYRQAPGKDRDLEAAISSGGRTNYADSVKGRFTISRDNAKNTVYLQMNCLKPEDTAVYYCAASFRRWYFYARHDYGYWGLGTQVTVSS”: “low polyreactivity”.
Next, “QVQLVESGGGLVQAGGSLRLSCAASGITFSSYAMGWSRQAPGKERELVAAISSGGSTYYADSVKGRFTISRDNAKNTVYLQMNSLKPEDTAVYYCRPLVTLDWYKFGYWGQGTQVTVSS”: “low polyreactivity”.
Regarding “QVQLVESGGGLVQAGGSLRLSCAASGGIFNSYTMGWYRQAPGKERELVAAITKRGGSTYYADSVKGRFTISRYNAKNTVYLQMNSLKPEDTAVYYCAAGATVQFDYWGQGTQVTVSS”, the “polyreactivity (PSR sort gate)” value is “high polyreactivity”.
As to “QVQLVESGGGLVQAGGSLRLSCASSGSTFLINAMGWYRQAPGKERELVAAISRDGSTNYADSVKGRFTISRDNAKNTVYLQMHSLIPEDTAVYSCAAVPGISVGRQPGYDYDYWGQGTQVTVSS”, the “polyreactivity (PSR sort gate)” value is recorded as “low polyreactivity”.
Next, “QVQLEESGGGLVQAGGSLRLSCAASGSTFLLYAMGRYRQAPGKEMEMVATISWGGDGTYYADSVKGRFTISRDNAKNTVYLQMNSLIPEDTAVYYCAAESYLVQFYFLYYYWGQGTQVTVSS”: “low polyreactivity”; “QVQLVESGGGLVQAGRSLRLSCAASGRTFVYYAMGWYRQAPGKERELVATISSSDSTNYADSVKGRFTISRDNAKNTVYLQMNSLKPEDTAVYYCAAGPKGGGYYDPFDYWGQGTQVTVSS”: “low polyreactivity”; “QVQLVESGGGLVQAGGSLRLSCAASGFTFYDYAMGLYRQAPGKERELVAGISRDGGTTYYSDSVKGRFTISRDNAKNTVYLQMNSLKPEDTAVYYCAVDFLDWYQDYYITYDYWGQGSQVTVSS”: “low polyreactivity”.
As to “QVQLVESGGGLVQAGGSLRVSCAASGGIFGLYTMGWYRQAPGTERELVAGISKRGTRTRYADSVKGRFTISRDNAKNTVYLQMNSLKPDDTAVYYCNADYYVSKLDDWGQGTQVTVSS”, the “polyreactivity (PSR sort gate)” value is given as “high polyreactivity”.
Take “QVQLVESGGGLVQAGGILRLSCAASGLTFSRYDMGWYRPEPGKERELVAAITWSGSSTYYADSVKGRFTLSRDNAKNTVYLQMNSLKRVDTAVYYCAARYGYSRGPYYRSYYWGQGTQVTVSS”: the “polyreactivity (PSR sort gate)” value is listed as “high polyreactivity”.
Then “QVQLVESGGGLVQAGGSLRLSCAASGSIFAYYAMGWYRQAPGKERELVAAISRRAGTTYYADSVKGRFTISRDNAKNTVYLQMNSLKPEDTAVYYCAKVSSVWYPRVDYWGQGTQVTVSS”, with “low polyreactivity”; and “QVQLVESGGGLVQAGGSLRLSCAASGFTFATNAMGWYTPAPGKERELVAVISSGGSTYYADSVKGLFTISRDNAKNTVYLQMNRLKPEDTAVYYCNAGRKVRGALDGYDYWGQGTQVTVSS”, with “high polyreactivity”; and “QVQLVESGGGLVQAGGSLRLICAASGRIVEGYAMGWYRQAPGKERELDAAISSGGSTYYADSVKGRFTISRDNAKNTVYLQMNSLKPEDTAVYYCNAAHSVVSHGPGAGLEMDYWGEGTQVTVSS”, with “low polyreactivity”.
Then “QVQLVESGGGLVQAGGSLRLSCAASGYIFGWYAMGWYRQAPGKERELVATIDWSGDSTYYADSVKGRFTISRDNAKNTVYLQMNSLKPEDTAVYYCAVGYSYYPSDEFDYWGQGTQVTVSS”, with “low polyreactivity”.
Next, “QVQLVESGGGLVQAGGSLRLSCAASGRTFKYYAMGWYRQAPGKERELVATISFRGGSTYYADSVKGRFTISRDNAKNTVYLQMNSLKPEDTSVYYCARRQWSRRPDDYWGQGTQVTVSS”: “high polyreactivity”; “QVQLVESRGGLVQAGGSLRLSCAASGLNFSYYAMGWYRQAPGKERELVAAIDWNSGSTYYADSVKGRFTISRDNAKNTVYLQMNSLKPEDTAVYYCAAYGSFWYARFGYWGQGTQVTVSS”: “low polyreactivity”; “QVQLVETRGGLVQAGGSLRLSCAASGSIFRTNVMGRYRQAPGKERELVAAISRRGGSTYYADSVKGRFTISRDNAKNTVYLQMITLKPEDTAVYYCAASSSAYRDDYWGQGTQVTVSS”: “high polyreactivity”.
As to “QVQLVESGGGLVQAGGSLRLSCAASGSTFFKYAMGWYRQAPGKERELVAAISYSGGSTYYADSVKGRFTISRDNAKNTVYLQMNSLKPVDTAVYYCAARVQNRYRPYYYWGQGTQVTVSS”, the “polyreactivity (PSR sort gate)” value is listed as “high polyreactivity”.
As to “QVQLGESGGGLVQAGGSLRLRCAASGRIFNGYTMGWYRQAPGKERELVAAISRGGSTYYADSVKGRLTISRDNAKNTVYLLMNSLKPEDTAVYYCAASHRFGYEYWGHGTQVTVSS”, the “polyreactivity (PSR sort gate)” value was “high polyreactivity”.
As to “QVHLVESGGGLVQAGGSLRLSCAASGRTLVPNAMGWYRQAPGKERELVAAISRSGGSTYYADSLKGRFTISRDNAKNTVYLQMNSLKPEDTAVYYCAKDKRIFYRVGSDYWGQGTQVTVSS”, the “polyreactivity (PSR sort gate)” value is reported as “low polyreactivity”.
For “QVQLVESGGGLVQAGGSLRLSCAASGFIFEDYAMGWYRQAPGKERELVAAITWRGGRTYYADSVKGRFTISRDNAKNTVYLQMNSLKPEDTAVYYCRPQVYSYASRYGYWGQGTQVTVLS”, the “polyreactivity (PSR sort gate)” value is recorded as “low polyreactivity”.
Then “QVQLVESGGGLVQAGGSLRLSCAASGYIFQWYDMGWYRQAPGKERELVAAISVTTGSTYYADSVKGRFTISRDNAKNTVYLQMNSLKPEDTAVYYCAAVSWYRHDMYYWGQGTQVTVSS”, with “low polyreactivity”.
Next, “QVQLVESGGGLVQAGGSLRLSCAASGSTFEYNAMGWYRQAPGKESELVASSTNYADSVKGRFTISRDNAKNTVYFQMNSLKPEDTAVYYCSREQGVNRNHDYWGQGTQVTVSS”: “low polyreactivity”; “QVQLVESGGGLVQAGGSLRLSCAASGRTFVYNAMGWYRQAPGKERELVATITSSGNTYYADSVKGRFTISRDNAKNTVYLQMNSLKPEDTAVYYCNRRYWTSGYWGQGTQVTVSS”: “high polyreactivity”; “QVQLVESGGGLVQAGGSLRLSCAASGSIFPQYAMGWYRQAPGKERELVAAITWSGSRTRYADSVKGRFTISRDNAKNTVYLQMNSLKPEDTAVYYCNAVNYRSSRDSGYWGQGTQVTVSS”: “high polyreactivity”.
